Measurements published in patent publication US20150191543A1 (University of California, published 2015).

B1: anti-mCD8 2.43 minibody (other)
scFv: EVQLVESGGGLVQPGRSLKLSCAASGFTFSNYYMAWVRQAPTKGLEWVAYINTGGGTTYYRDSVKGRFTISRDDAKSTLYLQMDSLRSEDTATYYCTTAIGYYFDYWGQGVMVTVSSGSTSGGGSGGGSGGGGSSDIQLTQSPASLSASLGETVSIECLASEDIYSYLAWYQQKPGKSPQVLIYAANRLQDGVPSRFSGSGSGTQYSLKISGMQPEDEGDYFCLQGSKFPYTFGAGTKLELKLEPRGPTIKPCPPCKCPAPNLLGGPGSVRAPQVYVLPPPEEEMTKKQVTLTCMVTDFMPEDIYVEWTNNGKTELNYKNTEPVLDSDGSYFMYSKLRVEKKNWVERNSYSCSVVHEGLHNYHTTKSFSRTPGKAAAAGHLPETGAGHHHHHHAAA
notes: Minibody (scFv-hinge-CH3 homodimer, about 80 kDa; 19% higher multimers); Some assays used the NOTA/64Cu-labelled or FITC-labelled protein
B2: anti-mCD8 YTS 169 minibody (other)
scFv: EVKLQESGGGLVQPGRSLKLSCAASGFNFNDYWMGWVRQAPGKGLEWIGEINKDSSTINYTPSLKDKFTISRDNAQNTLYLQMSKLGSEDTAIYYCARARGMMVLIIPHYFDYWGQGVMVTVSSGSTSGGGSGGGSGGGGSSDIVLTQSPAMAMSPGERITISCRASESVSTRMHWYQQKPGQQPKLLIYGASNLESGVPARFSGSGSGTDFTLTIDPVEANDTATYFCQQSWYDPWTFGGGTKLELKLEPRGPTIKPCPPCKCPAPNLLGGPGSVRAPQVYVLPPPEEEMTKKQVTLTCMVTDFMPEDIYVEWTNNGKTELNYKNTEPVLDSDGSYFMYSKLRVEKKNWVERNSYSCSVVHEGLHNYHTTKSFSRTPGKAAAAGHLPETGAGHHHHHHAAA
notes: Minibody (scFv-hinge-CH3 homodimer); also called YTS169 Mb
B3: anti-mCD8 2.43 Cys-diabody (other)
scFv: EVQLVESGGGLVQPGRSLKLSCAASGFTFSNYYMAWVRQAPTKGLEWVAYINTGGGTTYYRDSVKGRFTISRDDAKSTLYLQMDSLRSEDTATYYCTTAIGYYFDYWGQGVMVTVSSGGGGSDIQLTQSPASLSASLGETVSIECLASEDIYSYLAWYQQKPGKSPQVLIYAANRLQDGVPSRFSGSGSGTQYSLKISGMQPEDEGDYFCLQGSKFPYTFGAGTKLELKAAAGCGGHHHHHH
notes: Cys-diabody (scFv dimer, about 51 kDa)

Assays:
[1] = target: T1, soluble CD8αβ heterodimer fusion protein (mouse, UniProt P01731 28-151; P10300 22-138); experiment: SPR, Biacore 3000; minibody captured by goat anti-mouse IgG Fc, soluble monomeric sCD8αβ flowed at 0-100 nM
T1 sequence (P10300 other isoform, or with tags, fused parts or gaps): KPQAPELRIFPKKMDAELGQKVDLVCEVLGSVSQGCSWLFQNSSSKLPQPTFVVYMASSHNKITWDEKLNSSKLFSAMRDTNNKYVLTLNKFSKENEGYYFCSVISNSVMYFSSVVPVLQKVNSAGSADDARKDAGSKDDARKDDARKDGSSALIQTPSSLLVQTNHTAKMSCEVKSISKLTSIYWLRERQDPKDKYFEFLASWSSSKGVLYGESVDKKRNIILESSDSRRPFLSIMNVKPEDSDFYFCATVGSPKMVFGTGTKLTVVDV
Method: (§1) Surface Plasmon Resonance (SPR) analysis was performed on a Biacore 3000 (Precision Antibody, Inc.). Briefly, Mbs were captured using goat anti-mouse IgG Fc and sCD8αβ antigen was flowed over the chip at 100, 50, 25, 12.5, 6.25 and 0 nM. The equilibrium constant (KD) was calculated from the observed on (kₐ) and off (kd) rates.
SPR kinetic analysis was performed using the Biacore 3000 with immobilized minibody and soluble monomeric sCD8αβ.

[2] = target: T1, soluble CD8αβ heterodimer fusion protein; experiment: SPR, Biacore 3000; minibody captured by goat anti-mouse IgG Fc, sCD8αβ as analyte at 0-100 nM
Method: FIG. 15A-to FIG. 15C depict the kinetic analysis of minibody binding to sCD8αβ antigen using SPR Biacore 3000. […] Soluble monovalent antigen was then flowed over the chip at 100 (green), 50 (magenta), 25 (red), 12.5 (dark blue), 6.25 (light blue), and 0 (black) nM.
as §1

[3] = target: T2, mouse CD8α, Lyt2.2 allele (mouse, UniProt P01731 28-247); experiment: statement in Example 5; supported there only by in vivo immunoPET and biodistribution in C57Bl/6 mice
T2 construct: On the cells it is paired with CD8β (BW58 is Lyt2.2+, Lyt3+); also called CD8a Lyt2.2; CD8-Lyt2.2
T2 sequence (P01731 28-247 limits assumed): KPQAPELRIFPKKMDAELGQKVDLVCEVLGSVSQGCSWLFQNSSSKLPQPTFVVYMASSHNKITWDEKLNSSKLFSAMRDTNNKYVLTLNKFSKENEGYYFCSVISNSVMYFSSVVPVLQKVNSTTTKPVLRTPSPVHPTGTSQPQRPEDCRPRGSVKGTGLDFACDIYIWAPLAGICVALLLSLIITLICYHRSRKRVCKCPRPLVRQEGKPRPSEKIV

[4] = target: T3, mouse CD8α, Lyt2.1 allele (mouse, UniProt P01731 28-247); experiment: statement in Example 5; supported there only by in vivo immunoPET and biodistribution in C3H mice
T3 construct: Position 78 is counted on mature CD8a, not on the precursor; On the cells it is paired with CD8β (TK-1 is Lyt2.1+, Lyt3+); also called CD8a Lyt2.1; CD8-Lyt2.1
T3 sequence (P01731 28-247 M105V limits assumed): as the sequence (P01731 28-247 limits assumed) above, with M78V counted along it

Row | Binder | Kd [1] [nM] | Ka [2] [M⁻¹] | koff [2] [s⁻¹] | kon [2] [M⁻¹ s⁻¹] | binding result [3] | binding result [4]
1 | B1 | 34 | 3e+07 | 0.0041 | 120000 |  | 
2 | B2 | 33 | 3e+07 | 0.0076 | 230000 |  | 
3 | B3 |  |  |  |  | binds | no binding
